Test results as given in PMC4686830, “Ankyrin-mediated self-protection during cell invasion by the bacterial predator Bdellovibrio bacteriovorus” (Nature Communications, 2015).

T1: Bd3459:Bd3460 complex (Bd3459^M/Bd3460) (Bdellovibrio bacteriovorus, UniProt Q6MHT0, K38M)
T1 construct: 1:1 heterodimer; with Ankyrin repeat protein (self-protection protein)
T1 sequence (Q6MHT0 38-446 K38M): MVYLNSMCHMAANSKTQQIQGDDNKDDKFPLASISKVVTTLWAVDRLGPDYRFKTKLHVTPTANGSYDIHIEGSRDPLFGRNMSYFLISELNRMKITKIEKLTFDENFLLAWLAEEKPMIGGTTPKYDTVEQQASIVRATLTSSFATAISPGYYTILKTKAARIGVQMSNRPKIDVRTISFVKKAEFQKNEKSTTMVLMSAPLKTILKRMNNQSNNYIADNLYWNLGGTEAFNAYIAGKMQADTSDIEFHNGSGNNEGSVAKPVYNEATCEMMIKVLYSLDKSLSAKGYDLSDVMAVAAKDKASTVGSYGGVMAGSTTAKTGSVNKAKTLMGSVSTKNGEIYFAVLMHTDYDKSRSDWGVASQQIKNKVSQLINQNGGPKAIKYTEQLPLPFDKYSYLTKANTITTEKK
T1 sequence (Q6MHS9 25-220 A25M partner limits assumed): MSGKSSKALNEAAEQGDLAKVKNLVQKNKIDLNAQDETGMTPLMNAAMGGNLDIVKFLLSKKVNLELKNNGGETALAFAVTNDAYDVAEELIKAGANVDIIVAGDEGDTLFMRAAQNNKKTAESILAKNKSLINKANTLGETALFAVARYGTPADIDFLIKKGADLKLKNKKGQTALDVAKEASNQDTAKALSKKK

T2: Bd3459 DD-endopeptidase, new construct starting post signal peptide with K38M, C-terminal H8 tag (Bdellovibrio bacteriovorus HD100, UniProt Q6MHT0 38-446, K38M)
T2 construct: Bd3459 of Bdellovibrio bacteriovorus HD100, predicted secreted form, starting post signal peptide with K38 mutated to become the new N-terminal methionine; The active site serine S70 is unchanged: the crystals of this complex could be acylated with penicillin G. PDB 5CEB holds the same limits with S70A; also called tagged Bd3459; Bd3459^M; source: E. coli T7 express, co-expressed from pCDF-Duet1 …
T2 sequence (looked up): T1 sequence (Q6MHT0 38-446 K38M)

T3: Bd0816 DD-endopeptidase S58A (K26M start, C-terminal H8 tag) (Bdellovibrio bacteriovorus HD100, UniProt Q6MPN2 26-436, K26M | S58A)
T3 construct: Bd0816 of Bdellovibrio bacteriovorus HD100, starting at K26M; active site serine mutated to alanine (S58A); Expression of wild-type Bd0816 was toxic, so the S58A mutant was used for the complex; It is a trimer in the crystal, while a 1:1 heterodimer with Bd3460 is said to dominate in solution; also called Bd0816 S58A; tagged Bd0816; source: E. coli T7 express, co-expressed from pCDF-Duet1 with …
T3 sequence (looked up): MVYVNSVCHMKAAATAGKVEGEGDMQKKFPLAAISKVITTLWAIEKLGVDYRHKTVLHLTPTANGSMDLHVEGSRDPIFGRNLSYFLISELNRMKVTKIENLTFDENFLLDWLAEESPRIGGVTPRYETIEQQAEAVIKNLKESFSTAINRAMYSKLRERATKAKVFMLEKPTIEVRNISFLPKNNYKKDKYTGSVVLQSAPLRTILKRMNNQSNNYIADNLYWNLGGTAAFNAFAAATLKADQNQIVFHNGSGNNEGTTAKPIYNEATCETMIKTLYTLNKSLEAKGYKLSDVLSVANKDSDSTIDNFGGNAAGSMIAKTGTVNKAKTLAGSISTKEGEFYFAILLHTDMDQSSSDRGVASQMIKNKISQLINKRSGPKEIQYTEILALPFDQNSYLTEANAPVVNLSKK

B1: Bd3460, exported domain (amino acids 26-220), untagged, co-expressed with an endopeptidase (natural protein, Bdellovibrio bacteriovorus HD100, UniProt Q6MHS9 25-220, looked up)
chain: T1 sequence (Q6MHS9 25-220 A25M partner limits assumed)
notes: The only change is the start methionine in place of A25; also called untagged Bd3460; source: E. coli T7 express, co-expressed from pCDF-Duet1 with the H8-tagged endopeptidase, co-purified (His column)

Experiments:
[1] = molecular target: T1, Bd3459:Bd3460 complex (Bd3459^M/Bd3460); experiment: X-ray crystallography, […] A, crystal soak; format: binding; conditions: covalent; acylation of active-site serine (Ser70) of Bd3459; pre-grown complex crystals soaked with 2 mM penicillin G for 1 h
[2] = molecular target: Bd3459 DD-endopeptidase, purified (original construct, A37M start) (Bdellovibrio bacteriovorus HD100) (UniProt Q6MHT0); experiment: other fluorescence titration; intrinsic tryptophan fluorescence, excitation 280 nm, change of emission at 340 nm; 10 uM Bd3459 in the cuvette, Bd3460 titrated in; 25 °C; buffer B with Tris (10 mM pH 7.2, 0.25 M NaCl); one site-specific binding isotherm
[3] = molecular target: T2, Bd3459 DD-endopeptidase, new construct …; experiment: co-purification (His-tag affinity); H8-tagged endopeptidase and untagged Bd3460 co-expressed in E. coli and purified together on a His column; buffer C (20 mM imidazole pH 8.0, 0.4 M NaCl, 0.05% w/v Tween20); conditions: partners not purified
[4] = molecular target: T3, Bd0816 DD-endopeptidase S58A (K26M …); experiment: as above; conditions: partners not purified
[5] = molecular target: Bd3459 DD-endopeptidase, purified, active site serine acylated by penicillin G (Bdellovibrio bacteriovorus HD100) (UniProt Q6MHT0); experiment: other fluorescence titration; as a2, but Bd3459 pre-incubated with 0.75 mM penicillin G before titration with Bd3460

| Molecule | X-ray crystallography, 2.02 A, crystal soak [1] | Kd [2] [µM] | stoichiometry N [3] | stoichiometry N [4] | fold reduction in affinity against unacylated Bd3459 [5] [fold] |
| --- | --- | --- | --- | --- | --- |
| CC1(C)S[C@@H]2[C@H](NC(=O)Cc3ccccc3)C(=O)N2[C@H]1C(=O)O [penicillin G] | acylating pre-grown Bd3459:Bd3460 complex crystals with penicillin G | – | – | – | – |
| B1 | – | 26.8 | 1 | 1 | 2 |
